# From paper PMC10371073
# B1: Fused in Sarcoma (FUS), endogenous wild type [human (endogenous in HEK293 and human fibroblasts)] / DNA Ligase IIIα (Lig3), mitochondrial form mtLig3 [human (endogenous in HEK293 and human fibroblasts)] (parent)
# chain 1: MASNDYTQQATQSYGAYPTQPGQGYSQQSSQPYGQQSYSGYSQSTDTSGYGQSSYSSYGQSQNTGYGTQSTPQGYGSTGGYGSSQSSQSSYGQQSSYPGYGQQPAPSSTSGSYGSSSQSSSYGQPQSGSYSQQPSYGGQQQSYGQQQSYNPPQGYGQQNQYNSSSGGGGGGGGGGNYGQDQSSMSSGGGSGGGYGNQDQSGGGGSGGYGQQDRGGRGRGGSGGGGGGGGGGYNRSSGGYEPRGRGGGRGGRGGMGGSDRGGFNKFGGPRDQGSRHDSEQDNSDNNTIFVQGLGENVTIESVADYFKQIGIIKTNKKTGQPMINLYTDRETGKLKGEATVSFDDPPSAKAAIDWFDGKEFSGNPIKVSFATRRADFNRGGGNGRGGRGRGGPMGRGGYGGGGSGGGGRGGFPSGGGGGGGQQRAGDWKCPNPTCENMNFSWRNECNQCKAPKPDGPGGGPGGSHMGGNYGDDRRGGRGGYDRGGYRGRGGDRGGFRGGRGGGDRGGFGPGKMDSRGEHRQDRRERPY
# chain 2: LLHGHPLFLRRKPVLSFQGSHLRSRATYLVFLPGLHVGLCSGPCEMAEQRFCVDYAKRGTAGCKKCKEKIVKGVCRIGKVVPNPFSESGGDMKEWYHIKCMFEKLERARATTKKIEDLTELEGWEELEDNEKEQITQHIADLSSKAAGTPKKKAVVQAKLTTTGQVTSPVKGASFVTSTNPRKFSGFSAKPNNSGEAPSSPTPKRSLSSSKCDPRHKDCLLREFRKLCAMVADNPSYNTKTQIIQDFLRKGSAGDGFHGDVYLTVKLLLPGVIKTVYNLNDKQIVKLFSRIFNCNPDDMARDLEQGDVSETIRVFFEQSKSFPPAAKSLLTIQEVDEFLLRLSKLTKEDEQQQALQDIASRCTANDLKCIIRLIKHDLKMNSGAKHVLDALDPNAYEAFKASRNLQDVVERVLHNAQEVEKEPGQRRALSVQASLMTPVQPMLAEACKSVEYAMKKCPNGMFSEIKYDGERVQVHKNGDHFSYFSRSLKPVLPHKVAHFKDYIPQAFPGGHSMILDSEVLLIDNKTGKPLPFGTLGVHKKAAFQDANVCLFVFDCIYFNDVSLMDRPLCERRKFLHDNMVEIPNRIMFSEMKRVTKALDLADMITRVIQEGLEGLVLKDVKGTYEPGKRHWLKVKKDYLNEGAMADTADLVVLGAFYGQGSKGGMMSIFLMGCYDPGSQKWCTVTKCAGGHDDATLARLQNELDMVKISKDPSKIPSWLKVNKIYYPDFIVPDPKKAAVWEITGAEFSKSEAHTADGISIRFPRCTRIRDDKDWKSATNLPQLKELYQLSKEKADFTVVAGDEGSSTTGGSSEENKGPSGSAVSRKAPSKPSASTKKAEGKLSNSNSKDGNMQTAKPSAMKVGEKLATKSSPVKVGEKRKAADETLCQTKVLLDIFTGVRLYLPPSTPDFSRLRRYFVAFDGDLVQEFDMTSATHVLGSRDKNPAAQQVSPEWIWACIRKRRLVAPC
# Variants of: B1
# Test: proximity ligation assay (PLA) in control and patient derived fibroblasts
# Details: with DNA Ligase IIIα (Lig3), GO treatment (100ng/ml for 1 hr) per legend, the box plot does not say whether control or GO-treated cells were counted, parent: 64, read off a plot
row,response (PLA foci/cell),Variant
1,19,chain 1 MASNDYTQQATQSYGAYPTQPGQGYSQQSSQPYGQQSYSGYSQSTDTSGYGQSSYSSYGQSQNTGYGTQSTPQGYGSTGGYGSSQSSQSSYGQQSSYPGYGQQPAPSSTSGSYGSSSQSSSYGQPQSGSYSQQPSYGGQQQSYGQQQSYNPPQGYGQQNQYNSSSGGGGGGGGGGNYGQDQSSMSSGGGSGGGYGNQDQSGGGGSGGYGQQDRGGRGRGGSGGGGGGGGGGYNRSSGGYEPRGRGGGRGGRGGMGGSDRGGFNKFGGPRDQGSRHDSEQDNSDNNTIFVQGLGENVTIESVADYFKQIGIIKTNKKTGQPMINLYTDRETGKLKGEATVSFDDPPSAKAAIDWFDGKEFSGNPIKVSFATRRADFNRGGGNGRGGRGRGGPMGRGGYGGGGSGGGGRGGFPSGGGGGGGQQRAGDWKCPNPTCENMNFSWRNECNQCKAPKPDGPGGGPGGSHMGGNYGDDRRGGRGGYDRGGYRGRGGDRGGFRGGRGGGDRGGFGPGKMDSRGEHRQDHRERPY [chain 1 R521H]
2,20,chain 1 MASNDYTQQATQSYGAYPTQPGQGYSQQSSQPYGQQSYSGYSQSTDTSGYGQSSYSSYGQSQNTGYGTQSTPQGYGSTGGYGSSQSSQSSYGQQSSYPGYGQQPAPSSTSGSYGSSSQSSSYGQPQSGSYSQQPSYGGQQQSYGQQQSYNPPQGYGQQNQYNSSSGGGGGGGGGGNYGQDQSSMSSGGGSGGGYGNQDQSGGGGSGGYGQQDRGGRGRGGSGGGGGGGGGGYNRSSGGYEPRGRGGGRGGRGGMGGSDRGGFNKFGGPRDQGSRHDSEQDNSDNNTIFVQGLGENVTIESVADYFKQIGIIKTNKKTGQPMINLYTDRETGKLKGEATVSFDDPPSAKAAIDWFDGKEFSGNPIKVSFATRRADFNRGGGNGRGGRGRGGPMGRGGYGGGGSGGGGRGGFPSGGGGGGGQQRAGDWKCPNPTCENMNFSWRNECNQCKAPKPDGPGGGPGGSHMGGNYGDDRRGGRGGYDRGGYRGRGGDRGGFRGGRGGGDRGGFGPGKMDSRGEHRQDRRERLY [chain 1 P525L]
